“And” between values parts separate entries of the source, which are not always exact repeats. Equal entries are not always repeated.
Biological target: T1, recombinant human Apaf-1(1-591AA)-His (human, UniProt O14727 1-591)
T1 sequence (looked up): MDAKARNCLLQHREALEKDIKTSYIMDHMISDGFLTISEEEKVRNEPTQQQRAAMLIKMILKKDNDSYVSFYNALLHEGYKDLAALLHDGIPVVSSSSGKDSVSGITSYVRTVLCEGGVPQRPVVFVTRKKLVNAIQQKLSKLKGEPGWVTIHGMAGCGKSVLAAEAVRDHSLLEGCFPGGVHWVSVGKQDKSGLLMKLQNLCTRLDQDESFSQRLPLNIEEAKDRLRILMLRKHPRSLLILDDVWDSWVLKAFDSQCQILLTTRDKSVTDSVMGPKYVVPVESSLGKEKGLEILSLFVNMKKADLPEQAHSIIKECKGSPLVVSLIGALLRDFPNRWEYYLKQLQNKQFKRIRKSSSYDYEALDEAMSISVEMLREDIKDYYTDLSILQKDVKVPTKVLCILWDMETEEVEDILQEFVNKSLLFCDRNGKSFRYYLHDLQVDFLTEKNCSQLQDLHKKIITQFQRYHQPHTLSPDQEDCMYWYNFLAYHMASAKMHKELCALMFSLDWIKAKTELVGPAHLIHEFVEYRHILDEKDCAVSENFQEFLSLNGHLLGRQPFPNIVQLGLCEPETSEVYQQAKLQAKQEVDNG
Assay: SEC

B1: recombinant human caspase-4 (CARD)-Fc-HA (Fc fusion, UniProt P49662 1-91, looked up)
chain: MAEGNHRKKPLKVLESLGKDFLTGVLDNLVEQNVLNWKEEEKKKYYDAKTEDKVRVMADSMQEKQRMAGQMLLQTFFNIDQISPNKKAHPN
  stoichiometry N: 1.8 molecules of caspase-4 (CARD) for each Apaf (1-591) heptamer and 2.1 molecules of caspase-4 (CARD) for each Apaf (1-591) heptamer

Reference: publication doi:10.1101/2020.01.27.921122 (bioRxiv, 2020)
